Experimental data reported in paper PMC8154130.
Where two headings read alike, the source gives them in different places.

Assays:
Test in all cases: EMSA
[1] = target: T1, C-terminal truncated DDX3X (1-582) (Homo sapiens, UniProt O00571)
[2] = target: T1, C-terminal truncated DDX3X (1-582); remark: listed apart in the source
[3] = target: T1, C-terminal truncated DDX3X (1-582); remark: listed apart in the source
[4] = target: T1, C-terminal truncated DDX3X (1-582); remark: listed apart in the source
[5] = target: T1, C-terminal truncated DDX3X (1-582); remark: listed apart in the source

B1: C (ssRNA)
RNA: UUUUUUUUUUUUUUUUUUUUGGUGGUUGUG
- Kd [1]: 217 ± 60 nM
- Kd [2]: 298 ± 31 nM

B2: B:B (dsRNA)
RNA 1: UUUUUUUUUUUUUUUUUUUUGGCGGCCGCC
RNA 2: B2 RNA 1
- Kd [3]: 114 ± 10 nM
- Kd [4]: 285 ± 18 nM

B3: D:E (dsRNA)
RNA 1: CUCAACUCAACCCUUCAUCUCAACUCAACCCUUCAU
RNA 2: AUGAAGGGUUGAGUUGAGAUGAAGGGUUGAGUUGAG
- binding result [5]: no binding

B4: A:A (dsRNA)
RNA 1: GGCGGCCGCC
RNA 2: GGCGGCCGCC
- binding result [5]: no binding
